Assay results from the Human Domainome abundance scans (Beltran et al. 2025).

B1: Neutrophil cytosol factor 2, residues 456 to 514; numbered along this chain, P19878 (parent)
chain: LKKGSQVEALFSYEATQPEDLEFQEGDIILVLSKVNEEWLEGECKGKVGIFPKVFVEDC

Variants of: B1
Assay: abundance fitness (aPCA) (normalised: wild type 0, dead -1); higher = more abundant; growth selection in yeast, the domain comes from the species named
Conditions: Homo sapiens

Abundance fitness, by site and new letter:
V7: M -0.99, L -0.633, S -0.287, A -0.662, P -0.506, T 0.249, F -0.414, I -0.805, W -0.999, R -0.343, G -0.67
S12: G -0.377, K -0.609, T -0.119, C -0.595, M -0.382, Y -0.841, P -0.257, L -0.086, H -0.44, N -0.206, E -0.937, D -0.139, W -0.557, V -0.816, I -0.069, R -0.315
L10: V -0.609, S -0.789, R 0.046, E -0.667, K -0.611, W -0.92, G -0.57, T -0.528, N -0.226, P -0.539, M 0.116
A15: S 0.051, H -0.954, I -0.357, L -0.827, T -1.03, Y -0.617, C -0.362, R -0.417, P -0.005, N -0.853, G -0.152, W -0.48, F -0.606, D -0.73
A9: C 0.167, G -0.439, S -0.726, T -0.476, L -0.471, W -0.432, V -1.13, R -0.688, N -0.537, M -0.532, F -0.2, P 0.082, E -0.361, I -0.533
F11: Y -0.191, I -0.772, E -0.572, V 0.035, S -0.333, L -0.314, A 0.567, C 0.418, M -0.084, K 0.153, R 0.145, T -0.347, N 0.029, W -0.392, G -0.176
Y13: H -0.104, G -0.165, S -0.487, C -0.432, E -0.499, R 0.458, I -0.487, K -0.307, L -0.573, D -0.646, M 0.207, T -0.644, P -0.21, A -0.505, W -0.484, F -0.391, N -0.472
Q6: R 0.028, H 0.427, G -0.72, A -0.717, L 0.437, E -0.158, F 0.714, K 0.157, V 0.538, M 0.023, I -0.133, P -0.924, S -0.667, C -0.337, W 0.367
G4: F -0.312, K -0.193, V -0.452, I 0.575, D -0.031, W -0.84, L -0.83, Y -0.89, R -0.535, C -0.371, A -0.695, P -0.208
K2: F 0.093, R 0.002, T 0.427, P 0.067, H 0.249, G -0.307, S -0.347, A 0.146, W -0.109, N 0.141, M -0.593, L -0.46, V -0.337, E -0.415
K3: C 0.761, G -0.714, L -0.337, R -0.397, A -0.483, P 0.347, M -0.005, V -0.033, S -0.474, F -0.153, E -0.067, D -0.366, I 0.207, T -0.094, Y -0.479, W -0.781
L1: K -0.529, S -0.217, I 0.114, R 0.08, F 0.593, W 0.161, M 0.035, N -0.024, G -0.053, E 0.143, Y 0.581, V -0.294
